From PMC10925063, “FUS unveiled in mitochondrial DNA repair and targeted ligase-1 expression rescues repair-defects in FUS-linked motor neuron disease” (Nature Communications, 2024)
Where a chain is given by its changes, count along the chain named. In names and notes the source's numbering stands.

T1: Tom20 (human (endogenous in fibroblasts and …, UniProt Q15388 1-145))
T1 construct: Tom20, mitochondria-specific marker, human, endogenous; source: endogenous, in fibroblasts and iPSC-derived motor neurons
T1 sequence (looked up): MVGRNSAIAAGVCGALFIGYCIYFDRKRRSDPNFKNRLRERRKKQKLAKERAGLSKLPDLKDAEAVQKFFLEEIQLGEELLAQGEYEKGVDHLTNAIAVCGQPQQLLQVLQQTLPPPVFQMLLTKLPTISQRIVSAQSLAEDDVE

B1: mtDNA Ligase IIIα (mtLig3) (enzyme, UniProt P49916 43-1009, looked up)
chain: LLHGHPLFLRRKPVLSFQGSHLRSRATYLVFLPGLHVGLCSGPCEMAEQRFCVDYAKRGTAGCKKCKEKIVKGVCRIGKVVPNPFSESGGDMKEWYHIKCMFEKLERARATTKKIEDLTELEGWEELEDNEKEQITQHIADLSSKAAGTPKKKAVVQAKLTTTGQVTSPVKGASFVTSTNPRKFSGFSAKPNNSGEAPSSPTPKRSLSSSKCDPRHKDCLLREFRKLCAMVADNPSYNTKTQIIQDFLRKGSAGDGFHGDVYLTVKLLLPGVIKTVYNLNDKQIVKLFSRIFNCNPDDMARDLEQGDVSETIRVFFEQSKSFPPAAKSLLTIQEVDEFLLRLSKLTKEDEQQQALQDIASRCTANDLKCIIRLIKHDLKMNSGAKHVLDALDPNAYEAFKASRNLQDVVERVLHNAQEVEKEPGQRRALSVQASLMTPVQPMLAEACKSVEYAMKKCPNGMFSEIKYDGERVQVHKNGDHFSYFSRSLKPVLPHKVAHFKDYIPQAFPGGHSMILDSEVLLIDNKTGKPLPFGTLGVHKKAAFQDANVCLFVFDCIYFNDVSLMDRPLCERRKFLHDNMVEIPNRIMFSEMKRVTKALDLADMITRVIQEGLEGLVLKDVKGTYEPGKRHWLKVKKDYLNEGAMADTADLVVLGAFYGQGSKGGMMSIFLMGCYDPGSQKWCTVTKCAGGHDDATLARLQNELDMVKISKDPSKIPSWLKVNKIYYPDFIVPDPKKAAVWEITGAEFSKSEAHTADGISIRFPRCTRIRDDKDWKSATNLPQLKELYQLSKEKADFTVVAGDEGSSTTGGSSEENKGPSGSAVSRKAPSKPSASTKKAEGKLSNSNSKDGNMQTAKPSAMKVGEKLATKSSPVKVGEKRKAADETLCQTKVLLDIFTGVRLYLPPSTPDFSRLRRYFVAFDGDLVQEFDMTSATHVLGSRDKNPAAQQVSPEWIWACIRKRRLVAPC
notes: DNA ligase IIIα, human, endogenous; also called LigIII; mitochondrial version of Lig3; source: endogenous, in HEK293 cells, fibroblasts, iPSC-derived motor neurons and NPSCs
B2: Fused in Sarcoma (FUS), endogenous wild type (natural protein, UniProt P35637 1-526, looked up)
chain: MASNDYTQQATQSYGAYPTQPGQGYSQQSSQPYGQQSYSGYSQSTDTSGYGQSSYSSYGQSQNTGYGTQSTPQGYGSTGGYGSSQSSQSSYGQQSSYPGYGQQPAPSSTSGSYGSSSQSSSYGQPQSGSYSQQPSYGGQQQSYGQQQSYNPPQGYGQQNQYNSSSGGGGGGGGGGNYGQDQSSMSSGGGSGGGYGNQDQSGGGGSGGYGQQDRGGRGRGGSGGGGGGGGGGYNRSSGGYEPRGRGGGRGGRGGMGGSDRGGFNKFGGPRDQGSRHDSEQDNSDNNTIFVQGLGENVTIESVADYFKQIGIIKTNKKTGQPMINLYTDRETGKLKGEATVSFDDPPSAKAAIDWFDGKEFSGNPIKVSFATRRADFNRGGGNGRGGRGRGGPMGRGGYGGGGSGGGGRGGFPSGGGGGGGQQRAGDWKCPNPTCENMNFSWRNECNQCKAPKPDGPGGGPGGSHMGGNYGDDRRGGRGGYDRGGYRGRGGDRGGFRGGRGGGDRGGFGPGKMDSRGEHRQDRRERPY
notes: Fused in Sarcoma (FUS), human, endogenous wild type; also called FUS WT; WT FUS; source: endogenous, in HEK293 cells, control fibroblasts, iPSC-derived motor neurons and NPSCs
B3: FUS P525L, endogenous mutant of ALS patient-derived cells (natural protein, UniProt P35637 1-526, looked up)
chain: B2 chain with P525L
notes: Fused in Sarcoma (FUS), human, with the ALS patient mutation P525L; source: endogenous, in ALS patient-derived fibroblasts, iPSC-derived motor neurons and NPSCs
B4: FUS R521H, endogenous mutant of ALS patient-derived cells (natural protein, UniProt P35637 1-526, looked up)
chain: B2 chain with R521H
notes: Fused in Sarcoma (FUS), human, with the ALS patient mutation R521H; source: endogenous, in ALS patient-derived fibroblasts and iPSC-derived motor neurons

Legend:
Conditions in all cases: partners not purified
[1] = biological target: B4; test: proximity ligation; Duolink in situ PLA on fixed, permeabilised control and patient iPSC-derived motor neurons (Fig. 1e, 4e); with or without GO; MitoTracker green counterstain; foci counted in 25 cells
[2] = biological target: B3; test: as above
[3] = biological target: B2; test: as above
Tom20 [4] = biological target: T1, Tom20; test: as above
Tom20 [5] = biological target: T1, Tom20; test: proximity ligation; Duolink in situ PLA on fixed, permeabilised cells with anti-FUS and anti-Tom20 or anti-HSP60; patient derived fibroblasts and motor neurons (Fig. 1c, d; the panel's cell type is not told); untreated or glucose oxidase (GO)
HSP60 = biological target: T2, HSP60 (human (endogenous in fibroblasts and …, UniProt P10809 27-573)); test: as above
T2 construct: HSP60, mitochondria-specific marker, human, endogenous; source: endogenous, in fibroblasts and motor neurons
T2 sequence (P10809 27-573): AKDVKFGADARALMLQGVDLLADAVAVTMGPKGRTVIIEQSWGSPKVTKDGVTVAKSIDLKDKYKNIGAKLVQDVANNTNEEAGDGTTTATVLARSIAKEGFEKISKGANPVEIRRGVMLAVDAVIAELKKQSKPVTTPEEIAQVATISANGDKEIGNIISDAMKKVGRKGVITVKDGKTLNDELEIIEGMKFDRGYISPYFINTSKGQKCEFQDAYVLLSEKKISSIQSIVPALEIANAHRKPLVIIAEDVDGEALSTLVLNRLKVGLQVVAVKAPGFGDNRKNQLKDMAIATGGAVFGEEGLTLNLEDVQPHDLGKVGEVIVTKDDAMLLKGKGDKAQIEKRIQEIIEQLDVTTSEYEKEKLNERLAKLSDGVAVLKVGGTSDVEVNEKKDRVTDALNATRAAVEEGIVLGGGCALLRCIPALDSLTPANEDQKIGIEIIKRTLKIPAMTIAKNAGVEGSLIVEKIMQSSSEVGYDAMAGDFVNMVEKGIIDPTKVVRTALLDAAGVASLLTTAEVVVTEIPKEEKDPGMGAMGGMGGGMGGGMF

Q: With B1 as the binder, how does the “PLA foci, median (GO)” value [1] read?
A: 4 PLA foci

Q: What about the “PLA foci, median (GO)” value [2] of the same binder?
A: 2 PLA foci

Q: And the “PLA foci, median (GO)” value [3]?
A: 8 PLA foci

Q: B2 was tested. Which “PLA foci, median (GO)” value (Tom20 [4]) did it give?
A: 4 PLA foci

Q: And the “PLA foci, median (untreated)” value (Tom20 [4])?
A: 1 PLA foci

Q: And the “PLA foci, median (untreated)” value (Tom20 [5])?
A: 24 PLA foci

Q: And the “PLA foci, median (GO)” value (HSP60)?
A: 36 PLA foci

Q: And the “PLA foci, median (untreated)” value (HSP60)?
A: 12 PLA foci

Q: What does the source list for B3?
A: PLA foci, median (GO) (Tom20 [4]): 13 PLA foci; PLA foci, median (untreated) (Tom20 [4]): 4 PLA foci; PLA foci, median (untreated) (Tom20 [5]): 218 PLA foci; PLA foci, median (GO) (HSP60): 64 PLA foci; PLA foci, median (untreated) (HSP60): 51 PLA foci

Q: Which results are given for B4?
A: PLA foci, median (GO) (Tom20 [4]): 9 PLA foci; PLA foci, median (untreated) (Tom20 [4]): 4 PLA foci; PLA foci, median (untreated) (Tom20 [5]): 89 PLA foci; PLA foci, median (GO) (HSP60): 56 PLA foci; PLA foci, median (untreated) (HSP60): 27 PLA foci
